# From patent publication US20260035452A1 (THE UNIVERSITY OF BIRMINGHAM, priority 2022, published 2026)
# Marks after values point to notes of the source that are not given here.
# Key:
# [1] = Haematological investigations; format: in vivo; conditions: mice, 100 μg/mouse
# Experimental: To assess the neutralising activity of Ab-IPL-IL-17™, CD-1 mice were injected i.p. with 100 μg/mouse of Ab-IPL-IL-17™, MAB421 or secukinumab as positive controls. After 30 min, an i.p. injection of 10 μg/mouse of IL-17A, IL-17F or IL-17A/F heterodimer was administered. After 2 h blood was collected by intracardiac puncture and serum levels of (A) IL-17A, (B) IL-17F or (C) IL-17A/F heterodimer were quantified by Elisa. (C-F) For the evaluation of immunogenic effects CD-1 mice were injected i.p. with 100 μg of IgG1 isotype antibody (vehicle) or IL-17 neutralising antibodies (bimekizumab, secukinumab, MAB421 or Ab-IPL-IL-17™). In the selected time-point (2 h, 24 h, 72 h, 7 days, 14 days and 21 days) total IgG, IgG1, lymphocytes and platelets levels were determined by Elisa and haematological blood count test, respectively. Data are presented as mean±S.D. for n=5 mice per group. Statistical analysis was conducted by one or two-way ANOVA followed by Bonferroni's for multiple comparisons. *P≤0.05, **P≤0.01, ***P≤0.001 vs IL-17 group; ^#P≤0.05, ^##P≤0.01, ^###P≤0.001, ^####P≤0.0001 vs vehicle group.
# Standard laboratory procedures were used for blood sampling and measurements (95). Haematological investigations, for all experimental conditions, including blood count test, leukocyte, and sidereal formula were performed on citrated and not-anticoagulated blood samples, respectively. Serological tests were performed by CELL-DYN Sapphire purchased from Abbott S.R.L. (Milan, Italy). All procedures were conducted under strictly aseptic conditions.
# Standard laboratory procedures were used for blood sampling and measurements. Haematological investigations, for all experimental conditions, including blood count test, leukocyte, and sidereal formula were performed on citrated and not-anticoagulated blood samples, respectively. Serological tests were performed by CELL-DYN Sapphire purchased from Abbott S.R.L. (Milan, Italy). All procedures were conducted under strictly aseptic conditions.
# [2] = test system: patients; conditions: cited from earlier work
substance,measurement,setting,value
Bimekizumab: IL-17 neutralising antibody (reference),GRA (Granulocytes),[1]; 2 h,0.24 ± 0.11 10^3/μL
same,HCT (Hematocrit),[1]; 2 h,29.96 ± 2.29%
same,HGB (Hemoglobin),[1]; 2 h,9.88 ± 1.02 g/dL
same,MCH (Mean Corpuscular Hemoglobin),[1]; 2 h,16.98 ± 1.38 pg
same,MCV (Mean Cell Volume),[1]; 2 h,61.22 ± 5.70 fL
same,MHCH,[1]; 2 h,30.00 ± 3.06 g/dL
same,MID,[1]; 2 h,0.36 ± 0.24 10^3/μL
same,MPV (Mean Platelet Volume),[1]; 2 h,4.64 ± 0.86 fL
same,PCT (Plateletcrit),[1]; 2 h,0.26 ± 0.07%
same,PWD (Platelet Distribution Width),[1]; 2 h,16.80 ± 1.42%
same,RBC (Red Blood Cells),[1]; 2 h,5.84 ± 1.62 10^6/μL
same,RDW (Red blood cells Distribution Width),[1]; 2 h,18.82 ± 1.75%
same,WBC (White Blood Cells),[1]; 2 h,3.90 ± 0.91 10^3/μL
same,GRA (Granulocytes),[1]; 24 h,0.22 ± 0.16 10^3/μL
same,HCT (Hematocrit),[1]; 24 h,29.56 ± 2.16%
same,HGB (Hemoglobin),[1]; 24 h,9.08 ± 1.55 g/dL
same,MCH (Mean Corpuscular Hemoglobin),[1]; 24 h,18.92 ± 1.42 pg
same,MCV (Mean Cell Volume),[1]; 24 h,62.32 ± 10.33 fL
same,MHCH,[1]; 24 h,30.70 ± 3.18 g/dL
same,MID,[1]; 24 h,0.42 ± 0.31 10^3/μL
same,MPV (Mean Platelet Volume),[1]; 24 h,5.00 ± 1.12 fL
same,PCT (Plateletcrit),[1]; 24 h,0.26 ± 0.06%
same,PWD (Platelet Distribution Width),[1]; 24 h,16.04 ± 1.30%
same,RBC (Red Blood Cells),[1]; 24 h,4.63 ± 0.99 10^6/μL
same,RDW (Red blood cells Distribution Width),[1]; 24 h,18.42 ± 1.18%
same,WBC (White Blood Cells),[1]; 24 h,4.60 ± 1.70 10^3/μL
same,GRA (Granulocytes),[1]; 72 h,0.30 ± 0.10 10^3/μL
same,HCT (Hematocrit),[1]; 72 h,22.04 ± 4.37** %
same,HGB (Hemoglobin),[1]; 72 h,7.10 ± 1.38* g/dL
same,MCH (Mean Corpuscular Hemoglobin),[1]; 72 h,21.46 ± 2.04* pg
same,MCV (Mean Cell Volume),[1]; 72 h,80.98 ± 9.17 fL
same,MHCH,[1]; 72 h,30.62 ± 5.57 g/dL
same,MID,[1]; 72 h,0.42 ± 0.22 10^3/μL
same,MPV (Mean Platelet Volume),[1]; 72 h,7.96 ± 1.95**** fL
same,PCT (Plateletcrit),[1]; 72 h,0.17 ± 0.03%
same,PWD (Platelet Distribution Width),[1]; 72 h,17.94 ± 2.99%
same,RBC (Red Blood Cells),[1]; 72 h,3.79 ± 1.02* 10^6/μL
same,RDW (Red blood cells Distribution Width),[1]; 72 h,17.12 ± 2.05%
same,WBC (White Blood Cells),[1]; 72 h,4.84 ± 2.49 10^3/μL
same,GRA (Granulocytes),[1]; 7 d,0.26 ± 0.11 10^3/μL
same,HCT (Hematocrit),[1]; 7 d,22.48 ± 3.74* %
same,HGB (Hemoglobin),[1]; 7 d,8.10 ± 1.33 g/dL
same,MCH (Mean Corpuscular Hemoglobin),[1]; 7 d,21.22 ± 3.74 pg
same,MCV (Mean Cell Volume),[1]; 7 d,72.78 ± 8.77 fL
same,MHCH,[1]; 7 d,29.36 ± 5.05 g/dL
same,MID,[1]; 7 d,0.46 ± 0.18 10^3/μL
same,MPV (Mean Platelet Volume),[1]; 7 d,6.78 ± 1.09* fL
same,PCT (Plateletcrit),[1]; 7 d,0.22 ± 0.07%
same,PWD (Platelet Distribution Width),[1]; 7 d,16.04 ± 2.71%
same,RBC (Red Blood Cells),[1]; 7 d,4.18 ± 0.93 10^6/μL
same,RDW (Red blood cells Distribution Width),[1]; 7 d,18.14 ± 3.00%
same,WBC (White Blood Cells),[1]; 7 d,5.08 ± 1.37 10^3/μL
same,GRA (Granulocytes),[1]; 14 d,0.20 ± 0.12 10^3/μL
same,HCT (Hematocrit),[1]; 14 d,28.36 ± 3.19%
same,HGB (Hemoglobin),[1]; 14 d,9.06 ± 1.84 g/dL
same,MCH (Mean Corpuscular Hemoglobin),[1]; 14 d,17.48 ± 1.38 pg
same,MCV (Mean Cell Volume),[1]; 14 d,61.10 ± 9.83 fL
same,MHCH,[1]; 14 d,29.96 ± 4.45 g/dL
same,MID,[1]; 14 d,0.40 ± 0.10 10^3/μL
same,MPV (Mean Platelet Volume),[1]; 14 d,5.66 ± 0.92 fL
same,PCT (Plateletcrit),[1]; 14 d,0.26 ± 0.05%
same,PWD (Platelet Distribution Width),[1]; 14 d,16.02 ± 1.63%
same,RBC (Red Blood Cells),[1]; 14 d,5.81 ± 1.41 10^6/μL
same,RDW (Red blood cells Distribution Width),[1]; 14 d,18.26 ± 2.28%
same,WBC (White Blood Cells),[1]; 14 d,3.00 ± 0.68 10^3/μL
same,GRA (Granulocytes),[1]; 21 d,0.22 ± 0.13 10^3/μL
same,HCT (Hematocrit),[1]; 21 d,29.20 ± 2.70%
same,HGB (Hemoglobin),[1]; 21 d,10.06 ± 1.27 g/dL
same,MCH (Mean Corpuscular Hemoglobin),[1]; 21 d,17.96 ± 1.57 pg
same,MCV (Mean Cell Volume),[1]; 21 d,62.92 ± 6.53 fL
same,MHCH,[1]; 21 d,30.50 ± 4.52 g/dL
same,MID,[1]; 21 d,0.32 ± 0.16 10^3/μL
same,MPV (Mean Platelet Volume),[1]; 21 d,5.02 ± 0.76 fL
same,PCT (Plateletcrit),[1]; 21 d,0.28 ± 0.03%
same,PWD (Platelet Distribution Width),[1]; 21 d,16.24 ± 1.83%
same,RBC (Red Blood Cells),[1]; 21 d,6.37 ± 1.11 10^6/μL
same,RDW (Red blood cells Distribution Width),[1]; 21 d,18.02 ± 1.34%
same,WBC (White Blood Cells),[1]; 21 d,3.32 ± 1.18 10^3/μL
brodalumab: licensed mAb in the IL-17-IL-17R pathway,side effect: intestinal inflammation,[2]; patients with IBD,enhanced intestinal inflammation
same,side effect: suicidal thoughts,[2]; some patients with psoriasis,suicidal thoughts in some patients with psoriasis
